Results as given in PMC11310207.

What was measured:
Assay in all cases: fluorescence polarisation
[1] = target: FAM-GGFLRRI, N-terminally FAM-labeled Dyn A (2–8)
[2] = target: FAM-…, N-terminally FAM-labeled Dyn A (2–13)
[3] = target: FAM-…, N-terminally FAM-labeled Dyn A (2–17)

Question: What does the source list for “rNln (Met37–Ser704) E475A, C-terminal 6xHis-tag, catalytically inactive mutant (from UniProt P42676 37-704) (enzyme)”?
Answer: Kd [1]: 23.7 µM; Kd [2]: 4.69 µM; Kd [3]: 3.26 µM
